Assay results taken from article PMC6488192 (2019).

What was measured:
Details in all cases: parent: 1; read off a plot
GAP1, endogenous [1] = experiment: IgG pulldown of TAP-tagged REH2, western blot quantification
REL1 ligase, endogenous = REL1 ligase, endogenous (UniProt P86927); experiment: IgG pulldown of TAP-tagged H2F1, self-adenylation reaction quantification
[2] = molecular target: RNA Editing Helicase 2 (REH2), endogenous (UniProt Q581T1); experiment: IgG pulldown of TAP-tagged H2F1, western blot quantification
[3] = molecular target: REH2-Associated Factor 1 (^H2F1), endogenous (UniProt Q585P3); experiment: as above
GAP1, endogenous [4] = experiment: as above

^H2F1 wild type with TAP tag (from UniProt Q585P3) Z5 R/K>A, sequence (Q585P3 23-524, change not shown): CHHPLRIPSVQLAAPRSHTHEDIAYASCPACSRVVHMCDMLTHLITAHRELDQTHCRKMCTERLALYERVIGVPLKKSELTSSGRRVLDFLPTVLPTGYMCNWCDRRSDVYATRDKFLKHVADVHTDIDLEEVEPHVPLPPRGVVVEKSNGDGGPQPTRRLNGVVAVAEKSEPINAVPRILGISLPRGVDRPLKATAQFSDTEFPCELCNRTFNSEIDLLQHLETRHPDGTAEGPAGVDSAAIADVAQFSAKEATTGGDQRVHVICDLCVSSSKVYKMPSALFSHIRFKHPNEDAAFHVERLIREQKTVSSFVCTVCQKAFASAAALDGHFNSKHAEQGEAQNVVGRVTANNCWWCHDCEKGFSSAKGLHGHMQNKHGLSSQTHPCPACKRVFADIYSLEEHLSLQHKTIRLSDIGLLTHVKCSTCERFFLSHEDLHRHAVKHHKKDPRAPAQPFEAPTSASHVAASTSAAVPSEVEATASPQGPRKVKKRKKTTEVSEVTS
^H2F1 wild type with TAP tag (from UniProt Q585P3) Z2 R/K>A, sequence (Q585P3 23-524, change not shown): as above
^H2F1 wild type with TAP tag (from UniProt Q585P3) Z1 R/K>A, sequence (Q585P3 23-524, change not shown): as above
REH2-Associated Factor 1 (^H2F1), endogenous, sequence (Q585P3 23-524): as the sequence (Q585P3 23-524, change not shown) above
^H2F1 wild type with TAP tag (from UniProt Q585P3) Z3 R/K>A, sequence (Q585P3 23-524, change not shown): as above

| Substance | ratio to parent (GAP1, endogenous [1]) | ratio to parent (REL1 ligase, endogenous) | ratio to parent [2] | ratio to parent [3] | ratio to parent (GAP1, endogenous [4]) |
| --- | --- | --- | --- | --- | --- |
| RNA Editing Helicase 2 (REH2) wild type with TAP tag (from UniProt Q581T1) H1998E | 0.52 |  |  |  |  |
| RNA Editing Helicase 2 (REH2) wild type with TAP tag (from UniProt Q581T1) K1078A; A1086D | 0.17 |  |  |  |  |
| RNA Editing Helicase 2 (REH2) wild type with TAP tag (from UniProt Q581T1) R1979A | 1 |  |  |  |  |
| RNA Editing Helicase 2 (REH2) wild type with TAP tag (from UniProt Q581T1) R2023A | 0.66 |  |  |  |  |
| ^H2F1 wild type with TAP tag (from UniProt Q585P3) Z1 R/K>A |  | 0.72 | 0.75 | 0.87 | 0.85 |
| ^H2F1 wild type with TAP tag (from UniProt Q585P3) Z2 R/K>A |  | 0.83 | 0.78 | 0.83 | 0.95 |
| ^H2F1 wild type with TAP tag (from UniProt Q585P3) Z3 R/K>A |  | 0.62 | 0.85 | 1.2 | 1 |
| ^H2F1 wild type with TAP tag (from UniProt Q585P3) Z5 R/K>A |  | 0.77 | 0.97 | 1 | 0.99 |
